The target in this experiment is TLR5^N14, a truncated human TLR5 construct containing only the D1-domain binding sites (human) (UniProt O60602). Briefly: SPR.
Sequence of UniProt O60602 (O60602 21-639): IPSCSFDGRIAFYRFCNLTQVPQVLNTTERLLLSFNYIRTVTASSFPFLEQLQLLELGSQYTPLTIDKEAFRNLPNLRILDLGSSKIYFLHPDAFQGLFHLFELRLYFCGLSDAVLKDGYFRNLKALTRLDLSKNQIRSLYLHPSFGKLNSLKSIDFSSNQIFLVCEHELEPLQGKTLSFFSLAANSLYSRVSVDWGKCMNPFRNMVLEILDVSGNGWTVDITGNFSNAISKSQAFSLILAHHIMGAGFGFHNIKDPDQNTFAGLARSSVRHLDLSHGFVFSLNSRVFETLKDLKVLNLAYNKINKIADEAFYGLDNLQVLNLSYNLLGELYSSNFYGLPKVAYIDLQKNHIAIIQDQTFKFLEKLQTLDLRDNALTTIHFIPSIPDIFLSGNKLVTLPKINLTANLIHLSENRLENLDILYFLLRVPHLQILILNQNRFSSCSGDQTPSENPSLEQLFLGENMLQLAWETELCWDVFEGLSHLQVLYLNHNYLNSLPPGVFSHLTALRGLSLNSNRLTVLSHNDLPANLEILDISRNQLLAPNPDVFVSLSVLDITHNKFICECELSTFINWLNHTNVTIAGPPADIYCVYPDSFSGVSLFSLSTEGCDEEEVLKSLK

As usually defined, the Kd is the constant that tells how readily two partners part at equilibrium. Higher therefore signals lower affinity. What is called koff is a measure of how fast the partners let go of each other. The low end stands for a long-lived complex, the high end for a short-lived complex. The term kon denotes a measure of how fast the partners come together. Lower therefore signals slow association. In turn, “RhFlaB, flagellin FlaB of Roseburia hominis, wild type (recombinant) (from UniProt G2T5W2 1-506) (natural protein)” returned a Kd of 11.4 nM, a koff of 0.000555 s⁻¹ and a kon of 45200 M⁻¹ s⁻¹.

For the substance “RhFlaB-PIM, primary interface mutant of RhFlaB (Q88A, R89A, Q96A) (from UniProt G2T5W2 1-506) (natural protein)”, the Kd is 78 nM, the koff was found to be 0.000691 s⁻¹ and the kon worked out at 9090 M⁻¹ s⁻¹.

“StFliC-PIM, primary interface mutant of StFliC (Q89A, R90A, Q97A) (natural protein)” returned a Kd of 585 nM, a koff of 0.011 s⁻¹ and a kon of 18800 M⁻¹ s⁻¹.

For “RhFlaB-ΔD0, RhFlaB truncated to remove the D0 domain (domain or fragment)”, the kon stood at 75500 M⁻¹ s⁻¹.

With “StFliC, flagellin FliC of Salmonella enterica serovar Typhimurium, wild type (from UniProt P06179 1-495) (natural protein)”, the Kd amounted to 16.3 nM, the koff was found to be 0.000192 s⁻¹ and the kon stood at 11300 M⁻¹ s⁻¹.

The values above are taken from doi:10.1101/2024.12.09.627598.
